From the Immune Epitope Database (IEDB)

Experiments:
Assay in all cases: IEDB peptide-MHC binding, purified MHC/competitive/radioactivity; filed as Kd, often an IC50 or EC50 that approximates it; ≥ and ≤ were set here for values at or beyond the usual limits of such assays
[1] = molecular target: HLA-A*33:01
[2] = molecular target: HLA-A*68:01
[3] = molecular target: HLA-A*11:01
[4] = molecular target: HLA-A*03:01
[5] = molecular target: HLA-A*31:01
[6] = source organism: SARS coronavirus Tor2
[7] = source organism: Vaccinia virus WR
[8] = source organism: Dengue virus 3 Martinique/1243/1999
[9] = source organism: Mammarenavirus guanaritoense
[10] = source organism: Dengue virus 1 Nauru/West Pac/1974
[11] = source organism: Mammarenavirus brazilense
[12] = source organism: Lassa virus Josiah
[13] = source organism: Triticum aestivum
[14] = source organism: Dengue virus 1 Brazil/97-11/1997
[15] = source organism: Dengue virus 2 Jamaica/1409/1983
[16] = source organism: Dengue virus 4 Philippines/H241/1956
[17] = source organism: Mammarenavirus machupoense
[18] = source organism: Lymphocytic choriomeningitis virus (strain Pasteur)

| Sequence | Kd [1, 7] | Kd [2, 7] | Kd [3, 7] | Kd [4, 7] | Kd [5, 7] | other results |
| --- | --- | --- | --- | --- | --- | --- |
| LTSMKYFVK | – | – | – | – | – | Kd [1, 6]: 0.939 µM; Kd [2, 6]: 234 nM; Kd [3, 6]: 19.9 nM; Kd [4, 6]: 223 nM; Kd [5, 6]: 74.9 nM |
| VIEYAKSISK | 17.5 µM | 2720 nM | 165 nM | 129 nM | 10800 nM | – |
| DFWKLVDRER | – | – | – | – | – | Kd [1, 8]: 0.00151 µM |
| KCSDHYLCLR | – | – | – | – | – | Kd [1, 9]: 5.78 µM; Kd [2, 9]: ≥ 70100 nM; Kd [3, 9]: ≥ 44800 nM; Kd [4, 9]: 4760 nM; Kd [5, 9]: 140 nM |
| FSSLRREHIK | 17.4 µM | 94.1 nM | 277 nM | 1020 nM | 144 nM | – |
| IVTMMKYCSY | 0.235 µM | 41.5 nM | 26.8 nM | 127 nM | 31.6 nM | – |
| VTLFFLSGR | – | – | – | – | – | Kd [1, 10]: 0.098 µM; Kd [5, 10]: 7490 nM |
| LNTPYCNYTK | – | – | – | – | – | Kd [1, 11]: 0.032 µM; Kd [2, 11]: 695 nM; Kd [3, 11]: 10800 nM; Kd [4, 11]: 15300 nM; Kd [5, 11]: 6410 nM |
| VVKDDPDHY | ≥ 77.7 µM | 8050 nM | 1800 nM | ≥ 78000 nM | ≥ 77900 nM | – |
| FLWTQSLRR | – | – | – | – | – | Kd [1, 12]: 2.9 µM; Kd [2, 12]: 320 nM; Kd [3, 12]: 723 nM; Kd [4, 12]: 40.7 nM; Kd [5, 12]: 2050 nM |
| KFAEESYTY | ≥ 77.7 µM | ≥ 38700 nM | 16500 nM | ≥ 78000 nM | 13500 nM | – |
| SLQVCVQTVR | – | – | – | – | – | Kd [1, 6]: 5.11 µM; Kd [2, 6]: 5790 nM; Kd [3, 6]: 7030 nM; Kd [4, 6]: 13300 nM; Kd [5, 6]: 470 nM |
| GLYNHNNTTY | 14.2 µM | 938 nM | 75.5 nM | 21 nM | 7950 nM | – |
| IISIRPRVTK | 5.69 µM | 180 nM | 125 nM | 55.5 nM | 425 nM | – |
| STAEQLSKY | ≥ 77.7 µM | 54.9 nM | 133 nM | 2430 nM | ≥ 77900 nM | – |
| FQGKFKKIVK | – | – | – | – | – | Kd [1, 6]: ≥ 24.7 µM; Kd [2, 6]: ≥ 24200 nM; Kd [3, 6]: 2880 nM; Kd [4, 6]: 9460 nM; Kd [5, 6]: 13400 nM |
| LQQHNIVHGK | – | – | – | – | – | Kd [1, 13]: ≥ 70 µM; Kd [2, 13]: ≥ 47900 nM; Kd [3, 13]: 100 nM; Kd [4, 13]: 1160 nM; Kd [5, 13]: 2420 nM |
| DSDVSLIIEY | 4.69 µM | 205 nM | 2730 nM | 4820 nM | 10300 nM | – |
| QTMLFTMLRK | – | – | – | – | – | Kd [1, 6]: 0.268 µM; Kd [2, 6]: 19.9 nM; Kd [3, 6]: 4.57 nM; Kd [4, 6]: 11.1 nM; Kd [5, 6]: 164 nM |
| RSAFNDDGIY | ≥ 70 µM | ≥ 31800 nM | ≥ 66400 nM | ≥ 70100 nM | ≥ 70000 nM | – |
| GSSKGNCAIK | ≥ 29.1 µM | 23.1 nM | 26.1 nM | 25 nM | 3480 nM | – |
| DVSLSAYIIR | 1.12 µM | 240 nM | 609 nM | 2410 nM | 387 nM | – |
| TMPNESRVK | ≥ 77.7 µM | 2040 nM | 930 nM | 17500 nM | ≥ 61600 nM | – |
| SLLTCAKFK | – | – | – | – | – | Kd [4, 14]: 21 nM |

| Sequence | Kd [1, 7] | Kd [2, 7] | Kd [3, 7] | Kd [4, 7] | Kd [5, 7] | other results |
| --- | --- | --- | --- | --- | --- | --- |
| RMCTREEFTR | – | – | – | – | – | Kd [1, 15]: 0.654 µM; Kd [5, 15]: 5.72 nM |
| SMTIREFPRK | 6.88 µM | 1250 nM | 3.18 nM | 10.1 nM | 39.6 nM | – |
| ITSTKTIEY | ≥ 20.9 µM | 1730 nM | 434 nM | 122 nM | 15100 nM | – |
| LITGNMSFR | – | – | – | – | – | Kd [1, 15]: 1.31 µM; Kd [2, 15]: 26.2 nM |
| VVRPPFNMLK | – | – | – | – | – | Kd [3, 16]: 70.9 nM; Kd [4, 16]: 4.44 nM |
| TQLYLGGMSY | – | – | – | – | – | Kd [1, 6]: ≥ 40 µM; Kd [2, 6]: 1350 nM; Kd [3, 6]: 766 nM; Kd [4, 6]: 36.5 nM; Kd [5, 6]: 5840 nM |
| SFFQEIPVFL | – | – | – | – | – | Kd [1, 17]: 2.41 µM; Kd [2, 17]: ≥ 49200 nM; Kd [3, 17]: ≥ 59700 nM; Kd [4, 17]: ≥ 70000 nM; Kd [5, 17]: 613 nM |
| TYLGPLNCK | – | – | – | – | – | Kd [1, 18]: 0.834 µM; Kd [2, 18]: 699 nM; Kd [3, 18]: 47.8 nM; Kd [4, 18]: 481 nM; Kd [5, 18]: 5220 nM |
| STYGWNIVK | – | – | – | – | – | Kd [4, 8]: 4.75 nM |
| AMPNLYKMQR | – | – | – | – | – | Kd [1, 6]: 11.7 µM; Kd [2, 6]: 1970 nM; Kd [3, 6]: 1010 nM; Kd [4, 6]: 1040 nM; Kd [5, 6]: 240 nM |
| RAVKFAEESY | ≥ 70 µM | 7290 nM | 14500 nM | 14800 nM | ≥ 70000 nM | – |
| SAVIDALPR | – | – | – | – | – | Kd [1, 12]: 15.3 µM; Kd [2, 12]: 53.3 nM; Kd [3, 12]: 222 nM; Kd [4, 12]: 11000 nM; Kd [5, 12]: 2120 nM |
| TINVNSLALK | 4 µM | 6.2 nM | 18.7 nM | 17.3 nM | 1120 nM | – |
| WLYYNQDVQR | 0.161 µM | 8.21 nM | 7910 nM | 1840 nM | 222 nM | – |
| QAAVLMGLGK | – | – | – | – | – | Kd [2, 16]: 60.7 nM |
| VVYRGTTTYK | – | – | – | – | – | Kd [1, 6]: 6.92 µM; Kd [2, 6]: 11.6 nM; Kd [3, 6]: 15.8 nM; Kd [4, 6]: 5.74 nM; Kd [5, 6]: 260 nM |
| AVNKSNKPLK | ≥ 47 µM | 5960 nM | 147 nM | 1090 nM | 1560 nM | – |
| ATTILTPMLR | – | – | – | – | – | Kd [2, 16]: 284 nM; Kd [3, 16]: 129 nM; Kd [5, 16]: 77.3 nM |
| VSTGESSILR | 3.23 µM | 119 nM | 204 nM | ≥ 24900 nM | 1390 nM | – |
| EWLWRTLGR | – | – | – | – | – | Kd [1, 8]: 0.00826 µM |
| LIKTILASY | 18.7 µM | 10300 nM | 7870 nM | 568 nM | 7440 nM | – |
| DLLFNEKLK | 0.744 µM | 29.2 nM | 188 nM | 1920 nM | 8150 nM | – |
| VVYDAKFEK | – | – | – | – | – | Kd [3, 14]: 42.4 nM; Kd [4, 14]: 7.01 nM |
| DSYTQMCDHR | – | – | – | – | – | Kd [1, 14]: 0.335 µM |

| Sequence | Kd [1, 7] | Kd [2, 7] | Kd [3, 7] | Kd [4, 7] | Kd [5, 7] | other results |
| --- | --- | --- | --- | --- | --- | --- |
| CVDIFTEGK | ≥ 77.7 µM | 18.6 nM | 78.3 nM | 3750 nM | 16300 nM | – |
| RSTPFNMLKR | – | – | – | – | – | Kd [5, 15]: 1390 nM |
| TIDNPTKYIR | 4.26 µM | 158 nM | 2600 nM | 15700 nM | 115 nM | – |
| HIIDSFNIR | 0.732 µM | 0.448 nM | 149 nM | 1680 nM | 1.12 nM | – |
| TAKLRWFVER | – | – | – | – | – | Kd [1, 14]: 0.0342 µM; Kd [5, 14]: ≥ 28400 nM |
| ILCFTIKRK | – | – | – | – | – | Kd [1, 6]: ≥ 45 µM; Kd [2, 6]: 17200 nM; Kd [3, 6]: 7710 nM; Kd [4, 6]: 1000 nM; Kd [5, 6]: 6680 nM |
| FFASFYYIWK | – | – | – | – | – | Kd [1, 6]: 0.0609 µM; Kd [2, 6]: 86.2 nM; Kd [3, 6]: 243 nM; Kd [4, 6]: 285 nM; Kd [5, 6]: 734 nM |
| CMTSCCSCLK | – | – | – | – | – | Kd [1, 6]: 1.86 µM; Kd [2, 6]: 40.2 nM; Kd [3, 6]: 80.8 nM; Kd [4, 6]: 62.7 nM; Kd [5, 6]: 800 nM |
| KLILAEYIR | 9.56 µM | 2090 nM | 15200 nM | 8070 nM | 68.1 nM | – |
| KKKTPRMCTR | – | – | – | – | – | Kd [5, 15]: 768 nM |
| LLLTSSQQK | – | – | – | – | – | Kd [4, 15]: 15.5 nM |
| KTSSVARLR | – | – | – | – | – | Kd ([3]; source organism: Lymphocytic choriomeningitis virus (strain Armstrong)): 72.8 nM |
| DQAMTQMYK | – | – | – | – | – | Kd [1, 6]: 8.45 µM; Kd [2, 6]: 121 nM; Kd [3, 6]: 866 nM; Kd [4, 6]: 2560 nM; Kd [5, 6]: 6970 nM |
| HVCNATDFWR | 0.383 µM | 37.9 nM | 450 nM | 6760 nM | 8.14 nM | – |
| LVAPSYGMR | – | – | – | – | – | Kd [2, 16]: 3.84 nM |
| TTILDVDLR | – | – | – | – | – | Kd [2, 16]: 35.8 nM |
| IIPALFEPER | – | – | – | – | – | Kd [2, 14]: 76.7 nM |
| RMIVGKNER | – | – | – | – | – | Kd [5, 8]: 16.1 nM |
| LTTLSRTSK | – | – | – | – | – | Kd [3, 15]: 214 nM |
| PVYLMTLMK | – | – | – | – | – | Kd [3, 16]: 196 nM; Kd [4, 16]: 3.91 nM |
| RASLIPDATH | – | – | – | – | – | Kd [1, 12]: ≥ 50.7 µM; Kd [2, 12]: 19600 nM; Kd [3, 12]: ≥ 59100 nM; Kd [5, 12]: 1980 nM |
| KLRPRWLDAR | – | – | – | – | – | Kd [5, 14]: 0.403 nM |
| LIKNAQTPR | – | – | – | – | – | Kd [5, 16]: 13.6 nM |
